In PMC10018367:
Where two headings read alike, the source gives them in different places.

What was measured:
Assay in all cases: EMSA
[1] = molecular target: T1, PARP1 (Homo sapiens, UniProt P09874 1-1014)
[2] = molecular target: T1, PARP1; remark: listed apart in the source
[3] = molecular target: T1, PARP1; remark: listed apart in the source
[4] = molecular target: T1, PARP1; remark: listed apart in the source

T1 sequence (P09874 whole entry): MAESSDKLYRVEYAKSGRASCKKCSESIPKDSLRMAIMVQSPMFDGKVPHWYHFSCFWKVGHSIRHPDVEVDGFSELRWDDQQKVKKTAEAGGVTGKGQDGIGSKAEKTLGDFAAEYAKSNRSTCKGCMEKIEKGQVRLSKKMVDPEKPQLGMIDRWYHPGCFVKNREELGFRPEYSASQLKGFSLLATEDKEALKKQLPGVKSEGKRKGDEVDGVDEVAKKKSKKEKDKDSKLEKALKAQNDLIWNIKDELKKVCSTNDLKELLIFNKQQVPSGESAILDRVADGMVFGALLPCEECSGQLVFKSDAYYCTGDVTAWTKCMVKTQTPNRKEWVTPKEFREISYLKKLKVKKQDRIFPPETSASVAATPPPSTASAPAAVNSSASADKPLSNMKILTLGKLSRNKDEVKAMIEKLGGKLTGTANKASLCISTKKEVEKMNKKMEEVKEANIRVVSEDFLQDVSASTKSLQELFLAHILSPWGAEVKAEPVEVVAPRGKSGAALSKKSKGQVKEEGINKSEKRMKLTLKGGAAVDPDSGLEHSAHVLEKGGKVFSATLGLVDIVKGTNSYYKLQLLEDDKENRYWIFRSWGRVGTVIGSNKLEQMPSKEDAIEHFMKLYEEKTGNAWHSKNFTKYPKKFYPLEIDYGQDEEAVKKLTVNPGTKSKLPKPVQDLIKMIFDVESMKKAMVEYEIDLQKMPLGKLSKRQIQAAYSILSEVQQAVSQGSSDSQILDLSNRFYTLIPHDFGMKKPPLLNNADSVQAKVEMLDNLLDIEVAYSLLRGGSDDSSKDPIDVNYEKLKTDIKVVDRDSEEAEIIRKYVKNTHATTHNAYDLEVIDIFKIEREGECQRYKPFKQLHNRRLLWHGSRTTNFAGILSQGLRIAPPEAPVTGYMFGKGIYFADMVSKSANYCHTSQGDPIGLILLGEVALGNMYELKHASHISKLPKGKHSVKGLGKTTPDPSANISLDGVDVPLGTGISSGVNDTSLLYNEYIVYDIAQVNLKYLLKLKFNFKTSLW

AAAGAUGUCCUAGCAAGGCAC (ssRNA) [ssRNA JYM3704]: no binding [1].

B1: ssDNA JYM3702 (ssDNA)
DNA: GGGTGAACCTGCAGGTGGGCGGCTGCTCATCGTAGGTTAGTTGGTAGAATTCGGCAGCGTC
B1: binds [2].

B2: R-loop (JYM3702 + JYM3703 + JYM3704) (mixed)
DNA 1: B1 DNA
DNA 2: GACGCTGCCGAATTCTACCAGTGCCTTGCTAGGACATCTTTGCCCACCTGCAGGTTCACCC
RNA: AAAGAUGUCCUAGCAAGGCAC
modifications: RNA strand 3
B2: binds [3].

B3: D-loop (JYM3702 + JYM3703 + JYM3705) (structured_DNA)
DNA 1: B1 DNA
DNA 2: B2 DNA 2
DNA 3: AAAGATGTCCTAGCAAGGCAC
B3: binds [4].
